# Assay results reported in the supplement of paper PMC9732359.
# ± gives the uncertainty stated by the source.
# Experiment: protein stability index of a GFP-peptide fusion (yeast GPS) (PSI 1-4); higher = more stable; sorted into four equal gates, so the index is relative within each strain
# In short: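 Tiled yeast protein peptides of 17 residues were each joined downstream of GFP, on plasmids that also express Cherry. The pooled library was maintained in yeast, and mid-log cultures in leucine-free medium were sorted into four equal gates on the GFP/Cherry ratio. Plasmids from every gate were amplified by PCR and sequenced on Illumina, with barcodes linking reads to strains. The protein stability index of a peptide is its gate-number-weighted read frequency summed over the gates.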
Sequence,protein stability index (doa10∆),protein stability index (pdr5∆),protein stability index (san1∆),protein stability index (ubr1∆)
QGEVGAVFIVPKILIRE [SWP82],2.03 ± 0.14,2.36 ± 0.21,1.69 ± 0.15,2.13 ± 0.2
QGFSKDTFELIKTFLVD [YDL116W/NUP84],3.02 ± 0.079,3.26 ± 0.063,2.75 ± 0.062,3.25 ± 0.043
QGGFYKQQDAEELFTQL [UBP6],3.38 ± 0.078,3.44 ± 0.12,3.07 ± 0.097,3.21 ± 0.075
QGKSKLIIIAANTPVLR [RPL30],2.91 ± 0.093,3.08 ± 0.12,2.96 ± 0.065,2.99 ± 0.078
QGLKLAKKHKLNAITLD [SMC3],2.4 ± 0.21,2.64 ± 0.29,,
QGPRSYFLDVKCPGCLN [RPS27A],2.93 ± 0.097,3.38 ± 0.1,3.13 ± 0.08,2.6 ± 0.11
QGRDTSKLPDPERWLPL [SRP72],3.33 ± 0.16,2.86 ± 0.21,3.31 ± 0.13,2.93 ± 0.17
QGSMSERPPYILNSYGV [SIR2],2.73 ± 0.072,3.03 ± 0.084,3 ± 0.066,2.87 ± 0.045
QGTNSVPNSIGNIFSNI [SNF5],2.91 ± 0.068,3.12 ± 0.095,3.15 ± 0.12,2.98 ± 0.052
QHQRIVAFVCSPISDSR [RPN10],1.92 ± 0.097,3.12 ± 0.11,1.48 ± 0.15,2.3 ± 0.16
QIENLNEVCLEKENRFE [SMC4],3.27 ± 0.17,3.48 ± 0.1,2.69 ± 0.23,3.4 ± 0.068
QILPESQWNDSSIDKIE [SIR3],,3.42 ± 0.18,,2.81 ± 0.12
QILTVDPKTSLRIVKPT [RPC82],3.07 ± 0.21,2.99 ± 0.19,3.09 ± 0.12,
QINKAQILENYNALFQQ [YJL039C/NUP192],2.81 ± 0.068,3.12 ± 0.058,2.73 ± 0.065,3.03 ± 0.047
QIPLHRAASVGSLKLIE [NAS6],2.04 ± 0.078,2.16 ± 0.084,2.23 ± 0.14,1.83 ± 0.1
QIPVYDTFDGSDLRVLS [FAS1],2.7 ± 0.081,2.92 ± 0.059,2.53 ± 0.069,2.69 ± 0.058
QIQKNGPEITPEEATTI [PRP8],2.85 ± 0.26,2.98 ± 0.15,2.83 ± 0.16,3.12 ± 0.16
QITLTFISELCSIEPIA [YML103C/NUP188],1.27 ± 0.035,1.46 ± 0.052,1.48 ± 0.085,1.82 ± 0.055
QIVSYCSNNKNSIKNVP [SSN2],1.65 ± 0.083,2.14 ± 0.096,1.4 ± 0.096,1.79 ± 0.083
QIYTQRAYMRPLGVILT [SCL1],1.8 ± 0.053,1.38 ± 0.06,1.43 ± 0.12,1.64 ± 0.036
QKEQNVNNRDSEKGFSK [YCS4],2.91 ± 0.071,3.11 ± 0.063,2.41 ± 0.061,2.97 ± 0.036
QKKATMSAEEALVYSYI [RPC34],1.43 ± 0.14,1.08 ± 0.099,,1.36 ± 0.22
QKSVSLLSSESNIPTLI [YDL116W/NUP84],2.73 ± 0.056,2.69 ± 0.065,2.8 ± 0.039,2.67 ± 0.05
QLASQLVDLKKELAELK [RPL35A],3.37 ± 0.26,3.68 ± 0.27,3.21 ± 0.066,3.35 ± 0.078
QLAVKIINKVLDYQETY [YJL039C/NUP192],1.94 ± 0.11,2.73 ± 0.096,2.51 ± 0.086,
QLCQITCQILESGEDEA [RRP46],2.25 ± 0.19,1.98 ± 0.082,1.72 ± 0.09,1.99 ± 0.061
QLDDEDFDLLNKTLTFE [FAS1],3.38 ± 0.12,3.58 ± 0.098,3.36 ± 0.069,3.16 ± 0.085

Sequence,protein stability index (doa10∆),protein stability index (pdr5∆),protein stability index (san1∆),protein stability index (ubr1∆)
QLNSRAVAVVVDPIQSV [RPN11],1.27 ± 0.067,1.65 ± 0.076,1.43 ± 0.12,1.48 ± 0.051
QLSKAAKAAAALAGGKK [RPS25A],1.7 ± 0.057,1.86 ± 0.067,1.82 ± 0.08,1.77 ± 0.047
QLSLDASKTNLRLTDVT [GAL11],2.85 ± 0.058,3.23 ± 0.066,3.06 ± 0.047,3.16 ± 0.047
QLTEFWTELCQREFKEI [NNF1],2.98 ± 0.21,3.41 ± 0.16,3.06 ± 0.07,3.09 ± 0.069
QLVIQQGTGKKTASLGN [ISW2],3.2 ± 0.24,2.83 ± 0.21,3.23 ± 0.21,3.41 ± 0.24
QMMARMAQTATQQQPGA [SRP54],2.34 ± 0.059,2.36 ± 0.067,2.35 ± 0.067,2.27 ± 0.044
QMMQQAQQKLKQNPGLM [SRP54],2.83 ± 0.08,3.07 ± 0.082,3.12 ± 0.055,3.119 ± 0.031
QNDFLFSVGESLSVVAG [ECM29],2.61 ± 0.065,3.08 ± 0.12,2.92 ± 0.11,2.71 ± 0.061
QNEMIDAIAVTKGHGFE [RPL3],3.08 ± 0.11,3.21 ± 0.1,3.35 ± 0.1,3.34 ± 0.076
QNENLPSDKSDSMVDKE [SSN2],3.07 ± 0.13,2.64 ± 0.096,2.73 ± 0.091,2.57 ± 0.077
QNISPVYSVDPLEKITD [PRP8],2.94 ± 0.083,2.9 ± 0.084,2.86 ± 0.054,2.85 ± 0.079
QNLRKELLIYKKSQCKK [YIL149C/MLP2],1.75 ± 0.078,2.35 ± 0.086,1.84 ± 0.086,1.63 ± 0.068
QNPENLLSEKILQYFEK [SIR3],2.83 ± 0.079,2.81 ± 0.086,2.8 ± 0.054,3.2 ± 0.072
QPAKEKGVTEKDAVDYS [RRP6],3.2 ± 0.21,3.15 ± 0.17,3.27 ± 0.091,3.42 ± 0.062
QPKPLFSFGKSDAAKEP [YOR098C/NUP1],2.52 ± 0.07,2.6 ± 0.039,2.44 ± 0.073,2.72 ± 0.085
QPSDVKPTSHKQLQQPK [SIR4],2.98 ± 0.096,3.15 ± 0.088,2.99 ± 0.084,3.06 ± 0.076
QPWQMDTNNEADLMALE [SNF12],2.59 ± 0.068,3.25 ± 0.076,2.86 ± 0.054,3.2 ± 0.036
QQAQARLQQGRRLPMTM [SNF2],3.1 ± 0.065,3.15 ± 0.055,3.24 ± 0.035,3.22 ± 0.048
QQNPKFLQSQRQQQQRS [SWI1],2.47 ± 0.06,1.94 ± 0.063,2.67 ± 0.057,2.05 ± 0.067
QQNYSKVLLPSINISCV [SWI1],1.85 ± 0.067,1.71 ± 0.059,1.87 ± 0.16,2.53 ± 0.054
QQPTASDNIASLQYINI [SMD1],3.27 ± 0.09,3.27 ± 0.098,3.13 ± 0.12,3.24 ± 0.078
QQQDQPEQSEQPEQHQD [RPN10],3 ± 0.052,3.12 ± 0.053,2.85 ± 0.046,3.24 ± 0.059
QQQGQIPQSQQVPQVRS [SNF5],2.37 ± 0.036,2.73 ± 0.042,2.45 ± 0.063,2.36 ± 0.048
QQQMANNNGNPGTTSTG [GAL11],3.13 ± 0.11,3.44 ± 0.065,3.26 ± 0.049,3.31 ± 0.043
QQQNASSKLYQMQQQQQ [GAL11],1.76 ± 0.091,1.66 ± 0.073,1.5 ± 0.13,1.78 ± 0.064
QQQQQNQQQQNQQPQQQ [SWI1],2.99 ± 0.041,3.06 ± 0.043,2.88 ± 0.032,2.85 ± 0.038
